“And” between values parts separate entries of the source, which are not always exact repeats. Equal values may be shown once.
B1: Haloalkane dehalogenase, D4Z2G1 (parent)
chain: MSLGAKPFGEKKFIEIKGRRMAYIDEGTGDPILFQHGNPTSSYLWRNIMPHCAGLGRLIACDLIGMGDSDKLDPSGPERYAYAEHRDYLDALWEALDLGDRVVLVVHDWGSALGFDWARRHRERVQGIAYMEAIAMPIEWADFPEQDRDLFQAFRSQAGEELVLQDNVFVEQVLPGLILRPLSEAEMAAYREPFLAAGEARRPTLSWPRQIPIAGTPADVVAIARDYAGWLSESPIPKLFINAEPGALTTGRMRDFCRTWPNQTEITVAGAHFIQEDSPDEIGAAIAAFVRRLRPA

Variants of: B1
Conditions: Sphingobium indicum (strain DSM 16413 / CCM 7287 / MTCC 6362 / UT26 / NBRC 101211 / UT26S); pH 7.5; Thermal; fluorescence; Na-Hepes 50 mM; reversible: no; structure 1MJ5; whole UniProt chain shown

Variant	Tm	change of melting temperature, mutant - wild type (higher = more stable)
MSLGAKPFGEKKFIEIKGRRMAYIDEGTGDPILFQHGNPTSAYLWRNIMPHCAGLGRLIACDLIGMGDSDKLDPSGPERYAYAEHRDYLDALWEALDLGDRVVLVVHDWGSALGFDWARRHRERVQGIAYMEAIAMPIEWADFPEQDRDLFQAFRSQAGEELVLQDNVFVEQVLPGLILRPLSEAEMAAYREPFLAAGEARRPTLSWPRQIPIAGTPADVVAIARDYAGWLSESPIPKLFINAEPGALTTGRMRDFCRTWPNQTEITVAGAHFIQEDSPDEIGAAIAAFVRRLRPA [S42A]	49.5 °C	-1.5 °C
MSLGAKPFGEKKFIEIKGRRMAYIDEGTGDPILFQHGNPTSSYLWRNIMPHCAGLGRLIACDLIGMGNSDKLDPSGPERYAYAEHRDYLDALWEALDLGDRVVLVVHDWGSALGFDWARRHRERVQGIAYMEAIAMPIEWADFPEQDRDLFQAFRSQAGEELVLQDNVFVEQVLPGLILRPLSEAEMAAYREPFLAAGEARRPTLSWPRQIPIAGTPADVVAIARDYAGWLSESPIPKLFINAEPGALTTGRMRDFCRTWPNQTEITVAGAHFIQEDSPDEIGAAIAAFVRRLRPA [D68N]	50.5 °C	-0.5 °C
MSLGAKPFGEKKFIEIKGRRMAYIDEGTGDPILFQHGNPTSSYLWRNIMPHCAGLGRLIACDLIGMGHSDKLDPSGPERYAYAEHRDYLDALWEALDLGDRVVLVVHDWGSALGFDWARRHRERVQGIAYMEAIAMPIEWADFPEQDRDLFQAFRSQAGEELVLQDNVFVEQVLPGLILRPLSEAEMAAYREPFLAAGEARRPTLSWPRQIPIAGTPADVVAIARDYAGWLSESPIPKLFINAEPGALTTGRMRDFCRTWPNQTEITVAGAHFIQEDSPDEIGAAIAAFVRRLRPA [D68H]	52 °C	1 °C
MSLGAKPFGEKKFIEIKGRRMAYIDEGTGDPILFQHGNPTSSYLWRNIMPHCAGLGRLIACDLIGMGLSDKLDPSGPERYAYAEHRDYLDALWEALDLGDRVVLVVHDWGSALGFDWARRHRERVQGIAYMEAIAMPIEWADFPEQDRDLFQAFRSQAGEELVLQDNVFVEQVLPGLILRPLSEAEMAAYREPFLAAGEARRPTLSWPRQIPIAGTPADVVAIARDYAGWLSESPIPKLFINAEPGALTTGRMRDFCRTWPNQTEITVAGAHFIQEDSPDEIGAAIAAFVRRLRPA [D68L]	49.5 °C	-1.5 °C
MSLGAKPFGEKKFIEIKGRRMAYIDEGTGDPILFQHGNPTSSYLWRNCMPHCAGLGRLIACDLIGMGDSDKLDPSGPERYAYAEHRDYLDALWEALDLGDRVVLVVHDWGSALGFDWARRHRERVQGIAYMEAIAMPIEWADFPEQDRDLFQAFRSQAGEELVLQDNVFVEQVLPGLILRPLSEAEMAAYREPFLAAGEARRPTLSWPRQIPIAGTPADVVAIARDYAGWLSESPIPKLFINAEPGALTTGRMRDFCRTWPNQTEITVAGAHFIQEDSPDEICAAIAAFVRRLRPA [I48C G283C]	49 °C	-2 °C
MSLGAKPFGEKKFIEIKGRRMAYIDEGTGDPILFQHGNPTSSYLWRNIMPHCAGLGRLIACDLIGMGDSDKLDPSGPHRYAYAEHRDYLDALWEALDLGDRVVLVVHDWGSALGFDWARRHRERVQGIAYMEAIAMPIEWADFPEQDRDLFQAFRSQAGEELVLQDNVFVEQVLPGLILRPLSEAEMAAYREPFLAAGEARRPTLSWPRQIPIAGTPADVVAIARDYAGWLSESPIPKLFINAEPGALTTGRMRDFCRTWPNQTEITVAGAHFIQEDSPDEIGAAIAAFVRRLRPA [E78H]	51 °C	0 °C
MSLGAKPFGEKKFIEIKGRRMAYIDEGTGDPILFQHGNPTSSYLWRNIMPHCAGLGRLIACDLIGMGDSDKLDPSGPERYAYLEHRDYLDALWEALDLGDRVVLVVHDWGSALGFDWARRHRERVQGIAYMEAIAMPIEWADFPEQDRDLFQAFRSQAGEELVLQDNVFVEQVLPGLILRPLSEAEMAAYREPFLAAGEARRPTLSWPRQIPIAGTPADVVAIARDYAGWLSESPIPKLFINAEPGALTTGRMRDFCRTWPNQTEITVAGAHFIQEDSPDEIGAAIAAFVRRLRPA [A83L]	51.5 °C	0.5 °C
MSLGAKPFGEKKFIEIKGRRMAYIDEGTGDPILFQHGNPTSSYLWRNIMPHCAGLGRLIACDLIGMGDSDKLDPSGPERYAYNEHRDYLDALWEALDLGDRVVLVVHDWGSALGFDWARRHRERVQGIAYMEAIAMPIEWADFPEQDRDLFQAFRSQAGEELVLQDNVFVEQVLPGLILRPLSEAEMAAYREPFLAAGEARRPTLSWPRQIPIAGTPADVVAIARDYAGWLSESPIPKLFINAEPGALTTGRMRDFCRTWPNQTEITVAGAHFIQEDSPDEIGAAIAAFVRRLRPA [A83N]	50 °C	-1 °C
MSLGAKPFGEKKFIEIKGRRMAYIDEGTGDPILFQHGNPTSSYLWRNIMPHCAGLGRLIACDLIGMGDSDKLDPCGPECYAYAEHRDYLDALWEALDLGDRVVLVVHDWGSALGFDWARRHRERVQGIAYMEAIAMPIEWADFPEQDRDLFQAFRSQAGEELVLQDNVFVEQVLPGLILRPLSEAEMAAYREPFLAAGEARRPTLSWPRQIPIAGTPADVVAIARDYAGWLSESPIPKLFINAEPGALTTGRMRDFCRTWPNQTEITVAGAHFIQEDSPDEIGAAIAAFVRRLRPA [S75C R79C]	45.5 °C and 44 °C	-5.5 °C and -5 °C
MSLGAKPFGEKKFIEIKGRRMAYIDEGTGDPILFQHGNPTSSYLWRNIMPHCAGLGRLIAPDLIGMGDSDKLDPSGPERYAYAEHRDYLDALWEALDLGDRVVLVVHDWGSALGFDWARRHRERVQGIAYMEAIAMPIEWADFPEQDRDLFQAFRSQAGEELVLQDNVFVEQVLPGLILRPLSEAEMAAYREPFLAAGEARRPTLSWPRQIPIAGTPADVVAIARDYAGWLSESPIPKLFINAEPGALTTGRMRDFCRTWPNQTEITVAGAHFIQEDSPDEIGAAIAAFVRRLRPA [C61P]	50.5 °C	-0.5 °C
MSLGAKPFGEKKFIEIKGRRMAYIDEGTGDPILFQHGNPTSCYLWRNIMPHCAGLGRLICCDLIGMGDSDKLDPSGPERYAYAEHRDYLDALWEALDLGDRVVLVVHDWGSALGFDWARRHRERVQGIAYMEAIAMPIEWADFPEQDRDLFQAFRSQAGEELVLQDNVFVEQVLPGLILRPLSEAEMAAYREPFLAAGEARRPTLSWPRQIPIAGTPADVVAIARDYAGWLSESPIPKLFINAEPGALTTGRMRDFCRTWPNQTEITVAGAHFIQEDSPDEIGAAIAAFVRRLRPA [S42C A60C]	47.5 °C	-1.5 °C
MSLGAKPFGEKKFIEIKGRRMAYIDEGTGDPILFQHGNPTSSYLWRNIMPHCAGLGRLIACDLIGMGDSDKLDPCGPERYAYAEHRDYLDALWEALDLGDRVVLVVHDWGSALGFDWARRHRERVQGIAYMEAIAMPIEWADFPEQDRDLFQAFRSQAGEELVLQDNVFVEQVLPGLILRPLSEAEMAAYREPFLAAGCARRPTLSWPRQIPIAGTPADVVAIARDYAGWLSESPIPKLFINAEPGALTTGRMRDFCRTWPNQTEITVAGAHFIQEDSPDEIGAAIAAFVRRLRPA [S75C E199C]	48.5 °C	-2.5 °C
MSLGAKPFGEKKFIEIKGRRMAYIDEGTGDPILFQHGNPTQSYLWRNIMPHCAGLGRLIACDLIGMGDSDKLDPSGPERYAYAEHRDYLDALWEALDLGDRVVLVVHDWGSALGFDWARRHRERVQGIAYMEAIAMPIEWADFPEQDRDLFQAFRSQAGEELVLQDNVFVEQVLPGLILRPLSEAEMAAYREPFLAAGEARRPTLSWPRQIPIAGTPADVVAIARDYAGWLSESPIPKLFINAEPGALTTGRMRDFCRTWPNQTEITVAGAHFIQEDSPDEIGAAIAAFVRRLRPA [S41Q]	49 °C	-2 °C
MSLGAKPFGEKKFIEIKGRRMAYIDEGTGDPILFQHGNPTSSYLWRNIMPCCAGLGRLIACDLIGMGDSDKLDPSGPERYAYAEHRDYLDALWEALDLGDRVVLVVHDWGSALGFDWARRHRERVQGIAYMEAIAMPIEWADFPEQDRDLFQAFRSQAGEELVLQDNVFVEQVLPGLILRPLSEAEMAAYREPFLAAGEARRPTLSWPRQIPIAGTPADVVAIARDYAGWLSESPIPKLFINAEPGALTTGRMRDFCRTWPNQTEITVAGAHFIQEDSPDEICAAIAAFVRRLRPA [H51C G283C]	48.5 °C and 46 °C	-2.5 °C and -3 °C
MSLGAKPFGEKKFIEIKGRRMAYIDEGTGDPILFQHGNPTSSYLWRNIMPHCAGLGRLIACDLIGMGDSDKLDPSGPERYNYAEHRDYLDALWEALDLGDRVVLVVHDWGSALGFDWARRHRERVQGIAYMEAIAMPIEWADFPEQDRDLFQAFRSQAGEELVLQDNVFVEQVLPGLILRPLSEAEMAAYREPFLAAGEARRPTLSWPRQIPIAGTPADVVAIARDYAGWLSESPIPKLFINAEPGALTTGRMRDFCRTWPNQTEITVAGAHFIQEDSPDEIGAAIAAFVRRLRPA [A81N]	51 °C	0 °C
MSLGAKPFGEKKFIEIKGRRMAYIDEGTGDPILFQHGNPTSSYLWRNIMPHCAGLGRLIACDLIGMGDSDKLDPSGPERYEYAEHRDYLDALWEALDLGDRVVLVVHDWGSALGFDWARRHRERVQGIAYMEAIAMPIEWADFPEQDRDLFQAFRSQAGEELVLQDNVFVEQVLPGLILRPLSEAEMAAYREPFLAAGEARRPTLSWPRQIPIAGTPADVVAIARDYAGWLSESPIPKLFINAEPGALTTGRMRDFCRTWPNQTEITVAGAHFIQEDSPDEIGAAIAAFVRRLRPA [A81E]	48 °C	-3 °C
MSLGAKPFGEKKFIEIKGRRMAYIDEGTGDPILFQHGNPTSSYLWRNIMPHCAGLGRLIACDLIGMGDSDKLDPSGPERYPYAEHRDYLDALWEALDLGDRVVLVVHDWGSALGFDWARRHRERVQGIAYMEAIAMPIEWADFPEQDRDLFQAFRSQAGEELVLQDNVFVEQVLPGLILRPLSEAEMAAYREPFLAAGEARRPTLSWPRQIPIAGTPADVVAIARDYAGWLSESPIPKLFINAEPGALTTGRMRDFCRTWPNQTEITVAGAHFIQEDSPDEIGAAIAAFVRRLRPA [A81P]	48 °C	-3 °C
MSLGAKPFGEKKFIEIKGRRMAYIDEGTGDPILFQHGNPTSSYLWRNIMPHCAGLGRLIACDLIGMGDSDKLDPSGPERYKYAEHRDYLDALWEALDLGDRVVLVVHDWGSALGFDWARRHRERVQGIAYMEAIAMPIEWADFPEQDRDLFQAFRSQAGEELVLQDNVFVEQVLPGLILRPLSEAEMAAYREPFLAAGEARRPTLSWPRQIPIAGTPADVVAIARDYAGWLSESPIPKLFINAEPGALTTGRMRDFCRTWPNQTEITVAGAHFIQEDSPDEIGAAIAAFVRRLRPA [A81K]	52 °C	1 °C
MSLGAKPFGEKKFIEIKGRRMAYIDEGTGDPILFQHGNPTSSYLWRNIMPHCKGLGRLIACDLIGMGDSDKLDPSGPERYAYAEHRDYLDALWEALDLGDRVVLVVHDWGSALGFDWARRHRERVQGIAYMEAIAMPIEWADFPEQDRDLFQAFRSQAGEELVLQDNVFVEQVLPGLILRPLSEAEMAAYREPFLAAGEARRPTLSWPRQIPIAGTPADVVAIARDYAGWLSESPIPKLFINAEPGALTTGRMRDFCRTWPNQTEITVAGAHFIQEDSPDEIGAAIAAFVRRLRPA [A53K]	51 °C	0 °C
MSLGAKPFGEKKFIEIKGRRMAYIDEGTGDPILFQHGNPTSSYLWRNIMPHCLGLGRLIACDLIGMGDSDKLDPSGPERYAYAEHRDYLDALWEALDLGDRVVLVVHDWGSALGFDWARRHRERVQGIAYMEAIAMPIEWADFPEQDRDLFQAFRSQAGEELVLQDNVFVEQVLPGLILRPLSEAEMAAYREPFLAAGEARRPTLSWPRQIPIAGTPADVVAIARDYAGWLSESPIPKLFINAEPGALTTGRMRDFCRTWPNQTEITVAGAHFIQEDSPDEIGAAIAAFVRRLRPA [A53L]	52 °C	1 °C
